Values quoted from earlier work in PMC5691641.

Target: Bax (Homo sapiens) (UniProt Q07812)
Sequence (Q07812 whole entry): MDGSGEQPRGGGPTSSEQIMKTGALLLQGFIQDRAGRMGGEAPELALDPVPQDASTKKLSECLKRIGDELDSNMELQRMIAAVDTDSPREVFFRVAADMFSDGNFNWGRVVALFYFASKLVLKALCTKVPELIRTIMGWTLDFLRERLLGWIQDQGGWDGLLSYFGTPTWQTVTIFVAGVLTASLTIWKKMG

Chain of vMIA (P16778 23-487): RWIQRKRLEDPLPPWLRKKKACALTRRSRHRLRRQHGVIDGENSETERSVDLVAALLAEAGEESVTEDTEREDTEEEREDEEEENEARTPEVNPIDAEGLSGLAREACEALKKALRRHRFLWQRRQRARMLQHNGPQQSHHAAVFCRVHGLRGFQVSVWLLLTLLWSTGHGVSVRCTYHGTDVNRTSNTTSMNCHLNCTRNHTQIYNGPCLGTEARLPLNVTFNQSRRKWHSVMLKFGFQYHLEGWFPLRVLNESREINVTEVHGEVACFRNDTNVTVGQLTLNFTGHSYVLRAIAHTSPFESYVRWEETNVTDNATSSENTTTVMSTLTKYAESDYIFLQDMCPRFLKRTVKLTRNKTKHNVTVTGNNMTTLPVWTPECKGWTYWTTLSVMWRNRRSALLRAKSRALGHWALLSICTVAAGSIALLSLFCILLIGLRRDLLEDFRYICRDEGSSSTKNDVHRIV

For vMIA (from UniProt P16778), the Kd is listed as 22 nM.
